Measurements taken from PMC5575297, “Interaction of lipopolysaccharides at intermolecular sites of the periplasmic Lpt transport assembly” (Scientific Reports, 2017).

T1: LptC construct lacking the 23 residues long N-terminal transmembrane domain (E. coli), P0ADV9
T1 chain: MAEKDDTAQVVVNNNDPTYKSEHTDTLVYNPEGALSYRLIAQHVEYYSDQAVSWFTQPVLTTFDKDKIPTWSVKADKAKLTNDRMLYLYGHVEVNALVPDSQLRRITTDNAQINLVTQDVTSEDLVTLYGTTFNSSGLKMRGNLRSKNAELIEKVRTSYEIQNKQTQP

B1: LptC construct lacking the 23 residues long N-terminal transmembrane domain (domain or fragment, E. coli, UniProt P0ADV9 24-191, looked up)
chain: T1 chain
notes: LptC, E. coli, lacking the first 23 residues (transmembrane domain); For NMR the protein was isotope-labelled (2H, 13C, 15N, or AILV methyl-labelled) or unlabelled; also called LptC dimer; source: E. coli M15 [prep4], pQESH plasmid, purified (HiTrap, S75 SEC)
B2: LptAm (monomeric E. coli LptA mutant, LptA Δ160-185) (domain or fragment, UniProt P0ADV1 28-159, looked up)
chain: VTGDTDQPIHIESDQQSLDMQGNVVTFTGNVIVTQGTIKINADKVVVTRPGGEQGKEVIDGYGKPATFYQMQDNGKPVEGHASQMHYELAKDFVVLTGNAYLQQVDSNIKGDKITYLVKEQKMQAFSDKGKR
notes: LptA, E. coli, residues 28-159; lacks the last C-terminal β-strand (Δ160-185); For NMR the protein was isotope-labelled (2H, 13C, 15N) or unlabelled; the purified protein is 28-159; also called monomeric LptA; C-terminally truncated LptA; source: E. coli BL21(DE3), pET21b, purified (HiTrap, S75 SEC)

Key:
[1] = target: B2; test: NMR titration; isotope-labelled LptC or LptAm with the unlabelled partner (1.2 molar equivalents); 2D BEST-TROSY / methyl spectra; 35 °C, buffer B with 5% D2O; submillimolar concentrations; conditions: both partners purified
[2] = target: T1, LptC construct lacking the 23 residues …; test: SAXS; beamline BM29 (ESRF), 20 °C, NMR buffer with 0.5% w/v sucrose; LptAm 1.6 and 2.4 mg/ml, LptC 1, 2 and 3 mg/ml, LptAm:LptC 1:1 molar ratio at 3.6 and 5.4 mg/ml; extrapolated to zero dilution; conditions: remark: other sources report otherwise
[3] = target: B2; test: SEC-MALS; 40 µl injected on Superdex S200 (10/300GL) in buffer B (50 mM sodium phosphate, 150 mM NaCl, pH 8) at 25 °C; proteins alone and LptC-LptAm mixtures (also with a two-times molar excess of LptAm); protein conjugate two-component analysis for the complex; conditions: both partners purified
[4] = target: T1, LptC construct lacking the 23 residues …; test: as above; conditions: remark: other sources report otherwise
[5] = target: B1; test: SAXS; beamline BM29 (ESRF), 20 °C, NMR buffer with 0.5% w/v sucrose; LptAm 1.6 and 2.4 mg/ml, LptC 1, 2 and 3 mg/ml, LptAm:LptC 1:1 molar ratio at 3.6 and 5.4 mg/ml; extrapolated to zero dilution; conditions: both partners purified

stoichiometry N [1] | stoichiometry N [2] | stoichiometry N [3] | stoichiometry N [4] | binding result [5] | Binder
~1 LptC:LptAm molar ratio | 2 | 2 LptC:LptAm (2:1) | 2 |  | B1
 |  |  |  | binds | B2
